Source: US20200199241A1 (Chugai, published 2020)
Positions count from the first letter of the chain named.

T1: FcγRIIb (human, UniProt P31994 43-217, limits assumed)
T1 construct: also called FcgRIIb; FcγIIB
T1 sequence: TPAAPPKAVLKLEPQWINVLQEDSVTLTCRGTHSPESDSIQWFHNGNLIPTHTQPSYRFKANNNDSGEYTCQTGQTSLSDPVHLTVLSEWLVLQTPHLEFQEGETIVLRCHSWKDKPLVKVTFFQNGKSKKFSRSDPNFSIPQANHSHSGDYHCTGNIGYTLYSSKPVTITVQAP

T2: FcγRIIa type H (human, UniProt P12318 36-217)
T2 construct: also called FcγRIIaH; FcγRIIH
T2 sequence: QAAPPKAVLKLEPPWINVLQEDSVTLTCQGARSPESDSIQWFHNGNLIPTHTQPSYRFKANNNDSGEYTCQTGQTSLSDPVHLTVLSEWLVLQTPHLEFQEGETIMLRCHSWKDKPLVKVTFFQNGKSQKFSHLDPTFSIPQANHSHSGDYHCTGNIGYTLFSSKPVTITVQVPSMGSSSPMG

B1: IL6R-BP087/IL6R-L (antibody, human IgG1)
heavy: QVQLQESGPGLVKPSETLSLTCAVSGHSISHDHAWSWVRQPPGEGLEWIGFISYSGITNYNPSLQGRVTISRDNSKNTLYLQMNSLRAEDTAVYYCARSLARTTAMDYWGEGTLVTVSSASTKGPSVFPLAPSSKSTSGGTAALGCLVKDYFPEPVTVSWNSGALTSGVHTFPAVLQSSGLYSLSSVVTVPSSSLGTQTYICNVNHKPSNTKVDKKVEPKSCDKTHTCPPCPAPEYLGGDSVFLFPPKPKDTLMISRTPEVTCVVVDVSHEDPEVKFNWYVDGVEVHNAKTKPREEQYNSTYRVVSVLTVLHQDWLNGKEYKCKVSNKALPKPIEKTISKAKGQPREPQVYTLPPSRDELTKNQVSLTCLVKGFYPSDIAVEWESNGQPENNYKTTPPVLDSDGSFFLYSKLTVDKSRWQQGNVFSCSVMHEALHNHYTQESLSLSP
light: DIQMTQSPSSLSASVGDRVTITCRASQDISSYLNWYQQKPGKAPKLLIYYTSRLHSGVPSRFSGSGSGTDFTFTISSLQPEDIATYYCQQGNTLPYTFGQGTKVEIK
notes: IgG1; Fc variant of IL6R-B3; copies: 2 + 2
B2: IL6R-BP186/IL6R-L (antibody, human IgG1)
heavy: B1 heavy with E235D, G239D, P273G, Y298D, K328A
light: B1 light
notes: as for B1
B3: IL6R-BP149/IL6R-L (antibody, human IgG1)
heavy: B1 heavy with E235D, G239D, Y298D, K328A
light: B1 light
notes: as for B1
B4: IL6R-BP184/IL6R-L (antibody, human IgG1)
heavy: B1 heavy with E235D, Y236L, P273G
light: B1 light
notes: as for B1
B5: IL6R-BP133/IL6R-L (antibody, human IgG1)
heavy: B1 heavy with E235D
light: B1 light
notes: as for B1
B6: IL6R-BP183/IL6R-L (antibody, human IgG1)
heavy: B1 heavy with E235D, P273G, K328A
light: B1 light
notes: as for B1
B7: IL6R-BP088/IL6R-L (antibody, human IgG1)
heavy: B1 heavy with Y236L, G239D, K328A
light: B1 light
notes: as for B1
B8: IL6R-BP180/IL6R-L (antibody, human IgG1)
heavy: B1 heavy with Y236L, G239D, P273G
light: B1 light
notes: as for B1
B9: IL6R-BP129/IL6R-L (antibody, human IgG1)
heavy: B1 heavy with E235D, Y236L, Y298D
light: B1 light
notes: as for B1
B10: IL6R-BP185/IL6R-L (antibody, human IgG1)
heavy: B1 heavy with E235D, G239D, P273G, K328A
light: B1 light
notes: as for B1
B11: IL6R-BP144/IL6R-L (antibody, human IgG1)
heavy: B1 heavy with Y236L, G239D, K328A, K332A
light: B1 light
notes: as for B1
B12: IL6R-BP148/IL6R-L (antibody, human IgG1)
heavy: B1 heavy with E235D, G239D, K328A
light: B1 light
notes: as for B1
B13: IL6R-BP132/IL6R-L (antibody, human IgG1)
heavy: B1 heavy with E235D, Y236L, K328A
light: B1 light
notes: as for B1
B14: IL6R-BP089/IL6R-L (antibody, human IgG1)
heavy: B1 heavy with K328A
light: B1 light
notes: as for B1
B15: IL6R-BP196/IL6R-L (antibody, human IgG1)
heavy: B1 heavy with H270D, P273G, K328A
light: B1 light
notes: as for B1
B16: IL6R-BP179/IL6R-L (antibody, human IgG1)
heavy: B1 heavy with Y236L, G239D, P273G, K328A
light: B1 light
notes: as for B1
B17: IL6R-BP150/IL6R-L (antibody, human IgG1)
heavy: B1 heavy with G239D, K328A, K332R
light: B1 light
notes: as for B1
B18: IL6R-BP189/IL6R-L (antibody, human IgG1)
heavy: B1 heavy with Y236L, G239D, H270D, P273G, K328A
light: B1 light
notes: as for B1
B19: IL6R-BP194/IL6R-L (antibody, human IgG1)
heavy: B1 heavy with E235D, G239D, H270D, P273G, K328A
light: B1 light
notes: as for B1
B20: IL6R-BP145/IL6R-L (antibody, human IgG1)
heavy: B1 heavy with G239D, K332A
light: B1 light
notes: as for B1
B21: IL6R-BP187/IL6R-L (antibody, human IgG1)
heavy: B1 heavy with P273G, K328A
light: B1 light
notes: as for B1
B22: IL6R-BP192/IL6R-L (antibody, human IgG1)
heavy: B1 heavy with E235D, Y236L, H270D, P273G, Y298D
light: B1 light
notes: as for B1
B23: IL6R-BP177/IL6R-L (antibody, human IgG1)
heavy: B1 heavy with E235D, G239D, P273G, K328D
light: B1 light
notes: as for B1
B24: IL6R-BP197/IL6R-L (antibody, human IgG1)
heavy: B1 heavy with E235D, G239D, H270D, P273G, Y298D, K328D
light: B1 light
notes: as for B1
B25: IL6R-BP143/IL6R-L (antibody, human IgG1)
heavy: B1 heavy with K328A, K332A
light: B1 light
notes: as for B1
B26: IL6R-BP198/IL6R-L (antibody, human IgG1)
heavy: B1 heavy with E235D, H270D, P273G, K328A
light: B1 light
notes: as for B1

Molecular target: T1, FcγRIIb
Assay: SPR (Biacore), bound amount, IL6R-BF648/IL6R-L = 100

Binder | relative binding activity
B1 | 137 % of control
B2 | 175 % of control
B3 | 173 % of control
B4 | 171 % of control
B5 | 137 % of control
B6 | 164 % of control
B7 | 161 % of control
B8 | 179 % of control
B9 | 138 % of control
B10 | 179 % of control
B11 | 121 % of control
B12 | 176 % of control
B13 | 150 % of control
B14 | 147 % of control
B15 | 157 % of control
B16 | 177 % of control
B17 | 183 % of control
B18 | 177 % of control
B19 | 178 % of control
B20 | 152 % of control
B21 | 157 % of control
B22 | 172 % of control
B23 | 177 % of control
B24 | 179 % of control
B25 | 133 % of control
B26 | 164 % of control

Molecular target: T2, FcγRIIa type H
Assay: as above

Binder | relative binding activity
B1 | 179 % of control
B2 | 368 % of control
B3 | 401 % of control
B4 | 131 % of control
B5 | 151 % of control
B6 | 191 % of control
B7 | 166 % of control
B8 | 203 % of control
B9 | 98 % of control
B10 | 446 % of control
B11 | 108 % of control
B12 | 462 % of control
B13 | 130 % of control
B14 | 186 % of control
B15 | 195 % of control
B16 | 226 % of control
B17 | 770 % of control
B18 | 183 % of control
B19 | 395 % of control
B20 | 224 % of control
B21 | 205 % of control
B22 | 122 % of control
B23 | 409 % of control
B24 | 294 % of control
B25 | 143 % of control
B26 | 188 % of control

Molecular target: T3, FcγRIa (human, UniProt P12314 16-292, limits assumed)
T3 construct: also called FcgRIa; CD64
Assay: as above

T3 sequence (P12314 16-292 limits assumed): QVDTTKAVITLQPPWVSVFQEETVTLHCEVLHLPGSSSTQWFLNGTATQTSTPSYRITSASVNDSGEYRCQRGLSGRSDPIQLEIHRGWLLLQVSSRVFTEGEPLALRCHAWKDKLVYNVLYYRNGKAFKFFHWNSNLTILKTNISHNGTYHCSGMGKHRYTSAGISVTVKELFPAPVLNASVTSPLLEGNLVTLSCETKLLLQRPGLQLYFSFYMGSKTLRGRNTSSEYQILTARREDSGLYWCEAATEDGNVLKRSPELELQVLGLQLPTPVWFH

Binder | relative binding activity
B1 | 33 % of control
B2 | 43 % of control
B3 | 29 % of control
B4 | 96 % of control
B5 | 41 % of control
B6 | 83 % of control
B7 | 25 % of control
B8 | 29 % of control
B9 | 68 % of control
B10 | 47 % of control
B11 | 64 % of control
B12 | 33 % of control
B13 | 91 % of control
B14 | 43 % of control
B15 | 89 % of control
B16 | 39 % of control
B17 | 30 % of control
B18 | 56 % of control
B19 | 69 % of control
B20 | 41 % of control
B21 | 68 % of control
B22 | 109 % of control
B23 | 57 % of control
B24 | 71 % of control
B25 | 86 % of control
B26 | 104 % of control

Molecular target: T4, FcγRIIIa type V (human, UniProt P08637 17-208, limits assumed)
T4 construct: also called FcγRIIIaV; FcgRIIIaV
Assay: as above

T4 sequence (P08637 other isoform, or with tags, fused parts or gaps limits assumed): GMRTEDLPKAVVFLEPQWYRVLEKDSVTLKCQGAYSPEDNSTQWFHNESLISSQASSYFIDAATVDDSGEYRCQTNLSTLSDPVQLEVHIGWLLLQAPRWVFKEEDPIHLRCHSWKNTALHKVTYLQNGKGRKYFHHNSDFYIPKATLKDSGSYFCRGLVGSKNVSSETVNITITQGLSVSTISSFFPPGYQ

Binder | relative binding activity
B1 | 158 % of control
B2 | 143 % of control
B3 | 186 % of control
B4 | 106 % of control
B5 | 114 % of control
B6 | 113 % of control
B7 | 122 % of control
B8 | 100 % of control
B9 | 95 % of control
B10 | 191 % of control
B11 | 128 % of control
B12 | 227 % of control
B13 | 120 % of control
B14 | 136 % of control
B15 | 137 % of control
B16 | 125 % of control
B17 | 204 % of control
B18 | 141 % of control
B19 | 249 % of control
B20 | 153 % of control
B21 | 124 % of control
B22 | 118 % of control
B23 | 186 % of control
B24 | 206 % of control
B25 | 114 % of control
B26 | 157 % of control
